Assay results from patent publication US20150322129A1 (Sanofi, published 2015).
Numbered stars: 1 amine (or outer) side, 2 acyl side, 3 side chain; on linkers, the order of the positions; unused ones are H or OH. Square brackets hold non-standard residues; d marks the D form. Side chains are listed from the residue outwards. Ends that are not written are not given here. * marks the point of attachment. γGlu = O=C(O)[C@H](CCC(=O)[*:2])N[*:1]; Stearoyl = CCCCCCCCCCCCCCCCCC(=O)*; Palmitoyl = CCCCCCCCCCCCCCCC(=O)*; AEEA = NCCOCCOCC(=O)O; Aib = CC(C)(N)C(=O)O

T1: human GIP receptor (human, UniProt P48546 22-466)
T1 sequence (looked up): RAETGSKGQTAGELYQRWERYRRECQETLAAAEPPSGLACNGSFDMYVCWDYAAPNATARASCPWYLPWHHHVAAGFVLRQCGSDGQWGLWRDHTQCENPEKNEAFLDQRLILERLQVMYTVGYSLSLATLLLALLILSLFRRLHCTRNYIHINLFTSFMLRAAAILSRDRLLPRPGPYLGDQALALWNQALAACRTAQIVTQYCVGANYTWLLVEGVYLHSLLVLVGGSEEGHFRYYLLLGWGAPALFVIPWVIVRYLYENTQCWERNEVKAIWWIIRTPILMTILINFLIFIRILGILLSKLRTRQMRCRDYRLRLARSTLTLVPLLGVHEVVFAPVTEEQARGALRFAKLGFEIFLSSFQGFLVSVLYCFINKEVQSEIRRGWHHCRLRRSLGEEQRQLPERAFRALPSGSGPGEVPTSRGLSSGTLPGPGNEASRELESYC

B1: SEQ ID NO: 8 (peptide)
peptide: HXHGTFTSDLSKQKDEEAVRLFIEWLKAGGPSSGAPPPS
modifications: Aib at position 2; Lys 14 side-chain NH2 acylated with γE-x70 = (S)-4-Carboxy-4-octadecanoylamino-butyryl-; C-terminal amide (NH2)
B2: SEQ ID NO: 15 (peptide)
peptide: H[dS]HGTFTSDLSKQK([γGlu-Stearoyl])DEEAVRLFIEWLKAGGPSSGAPPPS-NH2
modifications: N-terminus assumed
SMILES: CCCCCCCCCCCCCCCCCC(=O)N[C@@H](CCC(=O)NCCCC[C@H](NC(=O)[C@H](CCC(N)=O)NC(=O)[C@H](CCCCN)NC(=O)[C@H](CO)NC(=O)[C@H](CC(C)C)NC(=O)[C@H](CC(=O)O)NC(=O)[C@H](CO)NC(=O)[C@@H](NC(=O)[C@H](Cc1ccccc1)NC(=O)[C@@H](NC(=O)CNC(=O)[C@H](Cc1c[nH]cn1)NC(=O)[C@@H](CO)NC(=O)[C@@H](N)Cc1c[nH]cn1)[C@@H](C)O)[C@@H](C)O)C(=O)N[C@@H](CC(=O)O)C(=O)N[C@@H](CCC(=O)O)C(=O)N[C@@H](CCC(=O)O)C(=O)N[C@@H](C)C(=O)N[C@H](C(=O)N[C@@H](CCCNC(=N)N)C(=O)N[C@@H](CC(C)C)C(=O)N[C@@H](Cc1ccccc1)C(=O)N[C@H](C(=O)N[C@@H](CCC(=O)O)C(=O)N[C@@H](Cc1c[nH]c2ccccc12)C(=O)N[C@@H](CC(C)C)C(=O)N[C@@H](CCCCN)C(=O)N[C@@H](C)C(=O)NCC(=O)NCC(=O)N1CCC[C@H]1C(=O)N[C@@H](CO)C(=O)N[C@@H](CO)C(=O)NCC(=O)N[C@@H](C)C(=O)N1CCC[C@H]1C(=O)N1CCC[C@H]1C(=O)N1CCC[C@H]1C(=O)N[C@@H](CO)C(N)=O)[C@@H](C)CC)C(C)C)C(=O)O
B3: SEQ ID NO: 24 (peptide)
peptide: H-H[Aib]QGTFTSDLSKQK([γGlu-γGlu-Palmitoyl])EEEAVRLFIEWLKAGGPSSGAPPPS-NH2
SMILES: CCCCCCCCCCCCCCCC(=O)N[C@@H](CCC(=O)N[C@@H](CCC(=O)NCCCC[C@H](NC(=O)[C@H](CCC(N)=O)NC(=O)[C@H](CCCCN)NC(=O)[C@H](CO)NC(=O)[C@H](CC(C)C)NC(=O)[C@H](CC(=O)O)NC(=O)[C@H](CO)NC(=O)[C@@H](NC(=O)[C@H](Cc1ccccc1)NC(=O)[C@@H](NC(=O)CNC(=O)[C@H](CCC(N)=O)NC(=O)C(C)(C)NC(=O)[C@@H](N)Cc1c[nH]cn1)[C@@H](C)O)[C@@H](C)O)C(=O)N[C@@H](CCC(=O)O)C(=O)N[C@@H](CCC(=O)O)C(=O)N[C@@H](CCC(=O)O)C(=O)N[C@@H](C)C(=O)N[C@H](C(=O)N[C@@H](CCCNC(=N)N)C(=O)N[C@@H](CC(C)C)C(=O)N[C@@H](Cc1ccccc1)C(=O)N[C@H](C(=O)N[C@@H](CCC(=O)O)C(=O)N[C@@H](Cc1c[nH]c2ccccc12)C(=O)N[C@@H](CC(C)C)C(=O)N[C@@H](CCCCN)C(=O)N[C@@H](C)C(=O)NCC(=O)NCC(=O)N1CCC[C@H]1C(=O)N[C@@H](CO)C(=O)N[C@@H](CO)C(=O)NCC(=O)N[C@@H](C)C(=O)N1CCC[C@H]1C(=O)N1CCC[C@H]1C(=O)N1CCC[C@H]1C(=O)N[C@@H](CO)C(N)=O)[C@@H](C)CC)C(C)C)C(=O)O)C(=O)O

How the values were obtained:
Test in all cases: cell-based or functional assay
[1] = biological target: human GLP-1 receptor (human, UniProt P43220 24-463)
[2] = biological target: T1, human GIP receptor
[3] = biological target: human glucagon receptor (human, UniProt P47871 26-477)
Chain of human glucagon receptor (P47871 26-477): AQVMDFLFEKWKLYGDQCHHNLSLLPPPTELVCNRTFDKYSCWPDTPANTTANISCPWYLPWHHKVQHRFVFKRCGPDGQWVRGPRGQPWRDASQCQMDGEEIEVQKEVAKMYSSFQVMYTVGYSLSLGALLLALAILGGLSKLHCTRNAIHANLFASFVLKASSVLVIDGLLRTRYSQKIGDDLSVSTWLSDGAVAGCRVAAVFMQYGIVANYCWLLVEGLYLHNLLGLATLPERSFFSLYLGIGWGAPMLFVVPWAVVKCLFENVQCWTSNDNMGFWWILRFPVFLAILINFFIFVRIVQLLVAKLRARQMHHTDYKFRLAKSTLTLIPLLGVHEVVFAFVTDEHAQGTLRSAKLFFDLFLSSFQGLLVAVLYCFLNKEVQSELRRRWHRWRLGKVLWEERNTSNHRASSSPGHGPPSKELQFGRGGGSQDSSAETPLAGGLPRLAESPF

Row | Binder | EC50 hGLP-1R (cAMP formation) [1] [nM] | EC50 hGIP-R (cAMP formation) [2] [nM] | EC50 hGlucagon-R (cAMP formation) [3] [nM]
1 | H[Aib]QGTFTSDLSKQK([γGlu-Stearoyl])EEEAVRLFIEWLKAGGPSSGAPPPS-NH2 [SEQ ID NO: 6] | 0.0094 | 0.0607 | 0.309
2 | B1 |  | 0.0258 | 0.0245
3 | HSHGTFTSDLSKQK([γGlu-Stearoyl])EEEAVRLFIEWLKAGGPSSGAPPPS-NH2 [SEQ ID NO: 10] | 0.0034 | 0.0711 | 0.0069
4 | B2 | 0.0044 | 0.555 | 0.064
5 | B3 |  | 0.0199 | 0.261
6 | H-H[Aib]HGTFTSDLSKQK([AEEA-AEEA-γGlu-Palmitoyl])EEEAVRLFIEWLKAGGPSSGAPPPS-NH2 [SEQ ID NO: 27] |  | 0.0095 | 0.0234
